The target of assay [1] is ActRII ECD (Homo sapiens) (UniProt P27037). As to conditions: cited from earlier work.
The target in the next assay is T1, ALK3 (BMPRIa) ECD (Homo sapiens, UniProt P36894).
T1 chain: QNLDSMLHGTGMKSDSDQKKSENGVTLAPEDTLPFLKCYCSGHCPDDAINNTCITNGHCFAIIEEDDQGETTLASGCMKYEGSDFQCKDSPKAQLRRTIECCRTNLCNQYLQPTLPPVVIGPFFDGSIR
Briefly: SPR. (In general: Surface plasmon resonance follows binding to a sensor surface in real time, without labels.)

Among the data in PMC4276739 (2015) are Kd values, retold here.

What is called Kd is the constant that tells how readily two partners part at equilibrium.

Sequence of ActRII ECD (Homo sapiens) (P27037 20-135): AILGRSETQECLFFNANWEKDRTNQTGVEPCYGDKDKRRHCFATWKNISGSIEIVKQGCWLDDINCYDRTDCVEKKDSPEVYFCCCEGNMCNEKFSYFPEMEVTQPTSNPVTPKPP

For Activin A (from UniProt P08476), the Kd in assay [1] is 0.2 nM.

B1: BMP2 (protein)
chain: QAKHKQRKRLKSSCKRHPLYVDFSDVGWNDWIVAPPGYHAFYCHGECPFPLADHLNSTNHAIVQTLVNSVNSKIPKACCVPTELSAISMLYLDENEKVVLKNYQDMVVEGCGCR
Take B1: the Kd with ALK3 (BMPRIa) ECD came to 5 nM.
